Measurements reported in patent publication US20170369545A1.

Biological target: tyrosine kinase receptor MET on HeLa cells (UniProt P08581)
Sequence (P08581 25-1390 limits assumed): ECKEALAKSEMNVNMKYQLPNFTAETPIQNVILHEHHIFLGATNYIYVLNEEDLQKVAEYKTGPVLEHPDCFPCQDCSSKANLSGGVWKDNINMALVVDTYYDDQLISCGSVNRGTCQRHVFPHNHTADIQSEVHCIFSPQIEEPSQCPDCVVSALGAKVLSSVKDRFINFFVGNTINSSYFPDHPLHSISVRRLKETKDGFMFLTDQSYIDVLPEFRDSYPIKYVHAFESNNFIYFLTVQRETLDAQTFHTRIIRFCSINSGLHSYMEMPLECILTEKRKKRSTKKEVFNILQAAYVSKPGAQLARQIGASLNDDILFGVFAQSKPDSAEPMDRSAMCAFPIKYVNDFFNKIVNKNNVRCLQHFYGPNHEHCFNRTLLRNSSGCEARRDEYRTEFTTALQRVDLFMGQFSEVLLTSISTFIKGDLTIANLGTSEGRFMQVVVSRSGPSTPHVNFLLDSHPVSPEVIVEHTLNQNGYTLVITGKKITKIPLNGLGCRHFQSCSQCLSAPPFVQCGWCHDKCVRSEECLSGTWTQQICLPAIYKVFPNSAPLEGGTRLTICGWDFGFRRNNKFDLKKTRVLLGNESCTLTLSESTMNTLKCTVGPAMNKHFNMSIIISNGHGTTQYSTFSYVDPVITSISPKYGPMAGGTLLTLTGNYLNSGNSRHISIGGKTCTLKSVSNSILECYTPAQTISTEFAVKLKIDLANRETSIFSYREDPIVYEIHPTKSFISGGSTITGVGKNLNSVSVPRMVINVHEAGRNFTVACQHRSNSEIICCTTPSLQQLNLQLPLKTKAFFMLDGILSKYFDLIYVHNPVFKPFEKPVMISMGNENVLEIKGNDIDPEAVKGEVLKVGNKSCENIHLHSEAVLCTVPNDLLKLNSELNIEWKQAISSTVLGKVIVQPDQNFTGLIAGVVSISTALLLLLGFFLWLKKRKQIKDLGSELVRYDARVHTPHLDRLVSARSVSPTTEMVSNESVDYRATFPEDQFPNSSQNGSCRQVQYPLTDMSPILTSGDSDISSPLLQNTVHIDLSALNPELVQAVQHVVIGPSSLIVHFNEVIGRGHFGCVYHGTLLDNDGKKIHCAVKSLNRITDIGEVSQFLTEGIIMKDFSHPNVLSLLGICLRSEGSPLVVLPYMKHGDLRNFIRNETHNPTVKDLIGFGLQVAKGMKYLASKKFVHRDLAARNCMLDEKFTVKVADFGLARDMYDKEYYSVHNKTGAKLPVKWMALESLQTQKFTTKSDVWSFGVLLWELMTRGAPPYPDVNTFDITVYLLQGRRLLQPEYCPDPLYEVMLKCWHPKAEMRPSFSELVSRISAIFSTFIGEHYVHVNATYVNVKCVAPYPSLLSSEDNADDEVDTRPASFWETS

EC50 (read off the curve), Akt phosphorylation (P-AKT) [P-AKT]: 30 pM | EC50 (read off the curve), ERK phosphorylation (P-ERK) [P-ERK]: 20 pM
Substance: Hepatocyte growth factor/scatter factor (HGF/SF) (from UniProt P14210 32-728) (ligand)
